Source: article PMC5115805, “The Chloroplast SRP Systems of Chaetosphaeridium globosum and Physcomitrella patens as Intermediates in the Evolution of SRP-Dependent Protein Transport in Higher Plants” (PLoS ONE, 2016)
Changes are numbered by the printed parent chain. Numbers in names are those of the source. Where “and” joins values, the source holds several entries; their conditions need not be identical. Equal entries are not always repeated. One block for each molecule: values may come before it.

Assays:
[1] = target: At-His-cpSRP43, fluorescently labeled (Arabidopsis thaliana) (UniProt O22265); test: MST; labeled cpSRP43 (20 nM) or eGFP-Cg-43 (75 nM) constant, cpSRP54 constructs titrated; 300 mM NaCl, 2.7 mM KCl, 10 mM Na2HPO4, 1.8 mM K2HPO4, 5 mM MgCl2, 2 mM DTT, 0.05% Tween20, pH 7.3; Monolith NT.115, MST power 20%, LED power 20%
[2] = target: Chaetosphaeridium globosum cpSRP43(D189Y) (Chaetosphaeridium globosum); test: as above
[3] = target: Cg-His-eGFP-cpSRP43 (Chaetosphaeridium globosum); test: as above
[4] = system: Pp-cpSRP54-His (Physcomitrella patens); test: MST; conditions: 5 mM Mg2+, MST: 300 mM NaCl, 2.7 mM KCl, 10 mM Na2HPO4, 1.8 mM K2HPO4, 5 mM MgCl2, 2 mM DTT, 0.05% Tween20, pH 7.3, labeled Pp-cpSRP54 10-20 nM, temperature not stated …
[5] = target: Pp-His-cpSRP43, fluorescently labeled (Physcomitrella patens); test: MST; labeled cpSRP43 (20 nM) or eGFP-Cg-43 (75 nM) constant, cpSRP54 constructs titrated; 300 mM NaCl, 2.7 mM KCl, 10 mM Na2HPO4, 1.8 mM K2HPO4, 5 mM MgCl2, 2 mM DTT, 0.05% Tween20, pH 7.3; Monolith NT.115, MST power 20%, LED power 20%
[6] = target: T1, At-His-cpSRP54 (Arabidopsis thaliana, UniProt P37107 76-564); test: as above; conditions: both partners purified
T1 construct: cpSRP54 of Arabidopsis thaliana; the results call it 'full-length' as against the M-domain; also called At-His-54; At-54; source: E. coli BL21(DE3) or Rosetta2(DE3), purified (Ni-NTA, desalted); not shown: His tag, N-terminal, kept
T1 sequence (looked up): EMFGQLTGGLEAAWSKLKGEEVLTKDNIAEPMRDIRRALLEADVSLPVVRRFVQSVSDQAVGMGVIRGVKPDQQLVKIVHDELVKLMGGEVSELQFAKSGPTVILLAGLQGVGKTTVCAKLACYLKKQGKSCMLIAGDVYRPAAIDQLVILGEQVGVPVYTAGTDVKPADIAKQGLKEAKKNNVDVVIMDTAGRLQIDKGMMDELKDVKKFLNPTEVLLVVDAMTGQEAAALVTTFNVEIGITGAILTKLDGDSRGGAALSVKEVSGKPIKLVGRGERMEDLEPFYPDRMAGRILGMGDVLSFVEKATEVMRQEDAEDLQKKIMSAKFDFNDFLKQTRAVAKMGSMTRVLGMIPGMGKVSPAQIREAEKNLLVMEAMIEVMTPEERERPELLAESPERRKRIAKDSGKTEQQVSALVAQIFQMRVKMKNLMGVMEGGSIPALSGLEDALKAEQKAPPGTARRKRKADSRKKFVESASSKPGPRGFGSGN

[7] = target: T1, At-His-cpSRP54; test: pull-down; GST-cpSRP43 constructs on glutathione-sepharose, 20 μg of GST- and His-fusion constructs; eluates by SDS-PAGE and Coomassie staining; conditions: both partners purified

Kd [1]: 60 nM and 90 nM
Molecule: At-His-cpSRP54M (domain or fragment)

Kd [2]: 10000 nM and 11000 nM | Kd [3]: 11000 nM
Molecule: Cg-His-cpSRP54M (domain or fragment)

Molecule: Ec-SRP RNA
Kd ([4]; one of two replicate values): 17 nM and 27 nM

Molecule: Ot-cpSRP RNA
Kd [4]: 185 nM

Kd [5]: 9000 nM
Molecule: Pp-cpSRP54-His (natural protein)

Molecule: Pp-cpSRP RNA
Kd [4]: 1300 nM

B1: At-His-cpSRP43, fluorescently labeled (natural protein, Arabidopsis thaliana, UniProt O22265 57-373, looked up)
chain: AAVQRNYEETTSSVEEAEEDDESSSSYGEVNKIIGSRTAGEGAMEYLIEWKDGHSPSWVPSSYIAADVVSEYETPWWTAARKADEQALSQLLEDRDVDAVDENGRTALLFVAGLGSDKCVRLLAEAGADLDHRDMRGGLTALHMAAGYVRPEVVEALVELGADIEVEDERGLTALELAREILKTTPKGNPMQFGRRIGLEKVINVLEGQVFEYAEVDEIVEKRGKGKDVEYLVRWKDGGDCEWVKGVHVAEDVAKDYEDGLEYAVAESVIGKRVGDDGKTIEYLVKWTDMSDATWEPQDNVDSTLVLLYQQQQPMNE
modifications: fluorescent label on amines (Monolith NT.115 Protein Labeling Kit RED-NHS)
notes: cpSRP43 of Arabidopsis thaliana; the results speak of the 'full-length Arabidopsis thaliana cpSRP subunits'; the construct is not described among the plasmids; also called Ath-His-cpSRP43; At-43; source: E. coli BL21(DE3) or Rosetta2(DE3), purified (Ni-NTA, desalted); not shown: His tag, N-terminal, kept
Kd [6]: 50 nM and 60 nM

B2: At-GST-cpSRP43(Y269D) (natural protein, Arabidopsis thaliana, UniProt O22265 57-373, looked up)
chain: B1 chain with Y213D
notes: cpSRP43 of Arabidopsis thaliana in pGEX4T3, with Y269D; made from the construct of m9; also called pGEX4T3-At-GST-cpSRP43(Y269D); source: E. coli BL21(DE3) or Rosetta2(DE3), purified (glutathione-sepharose); not shown: GST, N-terminal, kept
binding result [7]: binds

B3: At-GST-cpSRP43 (natural protein, Arabidopsis thaliana, UniProt O22265 57-373, looked up)
chain: B1 chain
notes: cpSRP43 of Arabidopsis thaliana in pGEX4T3; also called At-GST-43; GST-cpSRP43 from Arabidopsis thaliana; source: E. coli BL21(DE3) or Rosetta2(DE3), purified (glutathione-sepharose); not shown: GST, N-terminal, kept
binding result [7]: binds

B4: At-GST-cpSRP43(Y269E) (natural protein, Arabidopsis thaliana, UniProt O22265 57-373, looked up)
chain: B1 chain with Y213E
notes: cpSRP43 of Arabidopsis thaliana in pGEX4T3, with Y269E; made from the construct of m9; also called pGEX4T3-At-GST-cpSRP43(Y269E); source: E. coli BL21(DE3) or Rosetta2(DE3), purified (glutathione-sepharose); not shown: GST, N-terminal, kept
binding result [7]: binds
